In US11427805B2, “Methods of producing human foregut endoderm cells expressing PDX1 from human definitive endoderm” (ViaCyte, Inc., priority 2005, dated 2022):

Tests used:
Format in all cases: cell-based, human
AFP gene expression = assay: Q-PCR of AFP gene expression in differentiating hESCs
Method: (§1) In the following experiments, real-time quantitative RT-PCR (Q-PCR) was the primary assay used for screening the effects of various treatments on hESC differentiation. In particular, real-time measurements of gene expression were analyzed for multiple marker genes at multiple time points by Q-PCR. Marker genes characteristic of the desired as well as undesired cell types were evaluated to gain a better understanding of the overall dynamics of the cellular populations. The strength of Q-PCR analysis includes its extreme sensitivity and relative ease of developing the necessary markers, as the genome sequence is readily available. Furthermore, the extremely high sensitivity of Q-PCR permits detection of gene expression from a relatively small number of cells within a much larger population. In addition, the ability to detect very low levels of gene expression provides indications for “differentiation bias” within the population. The bias towards a particular differentiation pathway, prior to the overt differentiation of those cellular phenotypes, is unrecognizable using immunocytochemical techniques. […] Additionally, Q-PCR provides a mechanism by which to evaluate the success of a differentiation protocol in a quantitative format at semi-high throughput scales of analysis.
To generate PCR template, total RNA was isolated using RNeasy (Qiagen) and quantitated using RiboGreen (Molecular Probes). Reverse transcription from 350-500 ng of total RNA was carried out using the iScript reverse transcriptase kit (BioRad), which contains a mix of oligo-dT and random primers. […] Fluorescence data was collected during the last 15 seconds of each extension phase. A three point, 10-fold dilution series was used to generate the standard curve for each run and cycle thresholds (Ct's) were converted to quantitative values based on this standard curve. The quantitated values for each sample were normalized to housekeeping gene performance and then average and standard deviations were calculated for triplicate samples. […]

definitive endoderm = assay: Dorsal / ventral / PDX1-negative foregut endoderm differentiation from definitive endoderm (marker gene expression); conditions: first four days of differentiation (FIGS. 51A, 51B)
Method: Definitive endoderm was produced from undifferentiated hESCs using a three or five day protocol in which activin A was provided to the culture medium at a concentration of 100 ng/ml each day. For both dorsal and ventral differentiation, the medium composition for the first five days was as follows: Day 1—RPMI+0% fetal bovine serum (FBS), Day 2—RPMI+0.2% PBS, Day 3—RPMI+2.0% FBS, Day 4—RPMI+2.0% FBS and Day 5—RPMI+2.0% FBS. For the ventral differentiation, definitive endoderm was produced for 3 days in activin A at 100 ng/ml and then exposed to BMP4 at 3 ng/ml and FGF10 at 50 ng/ml. […] For the dorsal differentiation procedure, definitive endoderm was produced for 5 days in activin A at 100 ng/ml and then exposed to retinoic acid (RA) at 2 μM and activin A at 25 ng/ml in CMRL medium containing B27 supplement (1:200).
Four separate conditions were used to treat hESCs that result in varying proportions of differentiation to definitive endoderm. All four conditions utilized RPMI supplemented with 0% FBS on the first day, 0.2% FBS on second day, and 2% FBS on days 3 and 4. The four conditions were as follows: (a) BMP4 at 100 ng/mL with SU5402 at 5 μM; (b) no exogenous growth factors; (c) activin A at 15 ng/mL; and (d) activin A at 100 ng/ml. […] All cultures were then incubated for 2 days with BMP4 at 3 ng/mL, FGF10 at 50 ng/ml and KAAD-cyclopamine at 0.5 μM in a base medium of 2% FBS in RPMI followed by 6 days with BMP4 at 3 ng/mL, FGF10 at 50 ng/ml and KAAD-cyclopamine at 0.5 μM in a base medium composed of CMRL with 1:200 dilution of B27 extract.
Definitive endoderm was produced by exposing undifferentiated hESCs to activin at 100 ng/mL in RPMI base medium supplemented with 0%, 0.2%, and 2% FBS on days 1 through 3, respectively. After 3 days of activin A treatment, the cultures were switched to a base medium composed of RPMI containing 2% FBS and maintained under one of the following conditions: (a) BMP4 at 3 ng/ml with FGF10 at 50 ng/ml and KAAD-cyclopamine at 0.5 μM; (b) FGF10 at 50 ng/ml and KAAD-cyclopamine at 0.5 μM; or (c-e) no exogenous factors. After two days, the base medium was changed to CMRL plus B27 supplement (1:200) and cells were maintained according to conditions (a-c) above. Alternatively, cells were maintained with no exogenous factors in RPMI with B27 supplement (1:200) (condition (d)) or RPMI with 2% FBS (condition (e)). The same factor treatment conditions were maintained for 8 more days of differentiation.
Human embryonic stem cells were differentiated for 7 days via a 2-step protocol to achieve PDX1 cells. The first step comprised 5 days differentiation in activin A (100 ng/ml) to robustly produce DE (D'Amour, K., et al., Nature Biotechnology 23, 1534-1541, (2005)). […]

CXCR4 gene expression = assay: Q-PCR of CXCR4 gene expression in differentiating hESCs
Method: In these experiments, hESCs were differentiated by growing in RPMI medium (Invitrogen, Carlsbad, Calif.; cat #61870-036) supplemented with 0.5%, 2.0% or 10% FBS and either with or without 100 ng/ml activin A for 6 days. In addition, a gradient of FBS ranging from 0.5% to 2.0% over the first three days of differentiation was also used in conjunction with 100 ng/ml of activin A. After the 6 days, replicate samples were collected from each culture condition and analyzed for relative gene expression by real-time quantitative PCR. The remaining cells were fixed for immunofluorescent detection of SOX17 protein.
(§2) hESCs were differentiated in RPMI media supplemented with 0.5%-2% FBS (increased from 0.5% to 1.0% to 2.0% over the first 3 days of differentiation) and either 0, 10, or 100 ng/ml of activin A. After 7 days of differentiation the cells were dissociated in PBS without Ca^2+/Mg^2+ containing 2% FBS and 2 mM (EDTA) for 5 minutes at room temperature. The cells were filtered through 35 μm nylon filters, counted and pelleted. […] Cells were resuspended at 5×10^6 cells/ml in buffer and analyzed and sorted using a FACS Vantage (Beckton Dickenson) by the staff at the flow cytometry core facility (The Scripps Research Institute). Cells were collected directly into RLT lysis buffer (Qiagen) for subsequent isolation of total RNA for gene expression analysis by real-time quantitative PCR.

SOX17 gene expression = assay: Q-PCR of SOX17 gene expression in differentiating hESCs
Method: as §1
The approach taken here was to perform relative quantitation using SYBR Green chemistry on a Rotor Gene 3000 instrument (Corbett Research) and a two-step RT-PCR format. Such an approach allowed for the banking of cDNA samples for analysis of additional marker genes in the future, thus avoiding variability in the reverse transcription efficiency between samples.
To generate PCR template, total RNA was isolated using RNeasy (Qiagen) and quantitated using RiboGreen (Molecular Probes). Reverse transcription from 350-500 ng of total RNA was carried out using the iScript reverse transcriptase kit (BioRad), which contains a mix of oligo-dT and random primers. Each 20 μL reaction was subsequently diluted up to 100 μL total volume and 3 μL was used in each 10 μL Q-PCR reaction containing 400 nM forward and reverse primers and 5 μL 2×SYBR Green master mix (Qiagen). Two step cycling parameters were used employing a 5 second denature at 85-94° C. (specifically selected according to the melting temp of the amplicon for each primer set) followed by a 45 second anneal/extend at 60° C. Fluorescence data was collected during the last 15 seconds of each extension phase. A three point, 10-fold dilution series was used to generate the standard curve for each run and cycle thresholds (Ct's) were converted to quantitative values based on this standard curve. The quantitated values for each sample were normalized to housekeeping gene performance and then average and standard deviations were calculated for triplicate samples. At the conclusion of PCR cycling, a melt curve analysis was performed to ascertain the specificity of the reaction. A single specific product was indicated by a single peak at the Tm appropriate for that PCR amplicon.
A first step in establishing the Q-PCR methodology was validation of appropriate housekeeping genes (HGs) in the experimental system. […] We measured the expression levels of Cyclophilin G, hypoxanthine phosphoribosyltransferase 1 (HPRT), beta-2-microglobulin, hydroxymethylbiane synthase (HMBS), TATA-binding protein (TBP), and glucoronidase beta (GUS) in differentiating hESCs. […] We routinely used both Cyclophilin G and GUS to calculate a normalization factor for all samples. The use of multiple HGs simultaneously reduces the variability inherent to the normalization process and increases the reliability of the relative gene expression values.
We were the first to analyze and describe the effect of TGFβ family growth factors, such as Nodal/activin/BMP, for use in creating definitive endoderm cells from embryonic stem cells in in vitro cell cultures. […]

hESCs [1] = assay: AFP antibody-labeled cell number by flow cytometry; conditions: FIGS. 9A-B
Source text: As a further evidence of the specificity of the SOX17^hi/AFP^lo/TM^lo/SPARC^lo marker profile as predictive of definitive endoderm, SOX17 and AFP gene expression was quantitatively compared to the relative number of antibody labeled cells.

hESCs [2] = assay: CXCR4+ cell number by flow cytometry; conditions: 0, 10, or 100 ng/ml, 7 days (FIGS. 30A-C)
Method: as §2, with “pelleted. Pellets were resuspended in a small volume of 50% human serum/50% normal donkey serum and incubated for 2 minutes on ice to block non-specific antibody binding sites. To this, 1 μl of mouse anti-CXCR4 antibody (Abcam, cat # ab10403-100) was added per 50 μl (containing approximately 10^5 cells) and labeling proceeded for 45 minutes on ice. Cells were washed by adding 5 ml of PBS containing 2% human serum (buffer) and pelleted. A second wash with 5 ml of buffer was completed then cells were resuspended in 50 μl buffer per 10^5 cells.” for “pelleted.”

B1: activin A (protein, UniProt P08476 311-426, looked up)
Inhibin beta A chain: GLECDGKVNICCKKQFFVSFKDIGWNDWIIAPSGYHANYCEGECPSHIAGTSGSSLSFHSTVINHYRMRGHSPFANLKSCCVPTKLRPMSMLYYDDGQNIIKKDIQNMIVEECGCS
modifications: Inhibin beta A chain
In the case of B1, the “suppression of AFP gene expression in comparison to no treatment” value (AFP gene expression; FIG. 8A) is reported as 6.8 fold, the “difference in AFP gene expression levels, activin A vs random differentiation in 10% FBS” value (AFP gene expression; FIG. 8A legend) is reported as “approximately 7 fold” and the “expression of the visceral endoderm marker AFP” value (AFP gene expression; activin A dose series (FIG. 13A)) is reported as “dose-dependent decrease”. For the same molecule, the “definitive endoderm production (CER and SOX17 gene expression)” value (definitive endoderm) was “robust definitive endoderm differentiation”, the “relative levels of CXCR4 gene expression” value (CXCR4 gene expression; 0, 10, or 100 ng/ml, 7 days (FIG. 32)) was “dramatically increased with increasing dose” and the CXCR4 expression (CXCR4 gene expression; 100 ng/ml (A100) vs no exogenous activin A (NF), 6 days (FIG. 26)) was “high”. The “dose dependence of SOX17 gene expression” value (SOX17 gene expression; 0, 10, 30 or 100 ng/ml (FIG. 11)) was “dose-dependently increases SOX17 gene expression”, the “SOX17 induction compared to no factor medium controls” value (SOX17 gene expression; 4-day time point) was 5 fold and the “SOX17 gene expression relative to the undifferentiated control media (SR20)” value (SOX17 gene expression; FIG. 7A) was “increases SOX17 gene expression”. The “induction of SOX17 gene expression vs. undifferentiated hESCs” value (SOX17 gene expression; day 4 of differentiation / four days of exposure, activin A at 100 ng/ml, 10% serum medium (FIGS. 19, 21)) was 19 fold, the “difference in the level of SOX17 mRNA expression” value (SOX17 gene expression; hESCs treated with activin A vs retinoic acid (FIG. 7A)) was 10 fold and the “decrease in AFP antibody-labeled cell number as measured by flow cytometry” value (hESCs [1]) was “approximately 7 fold”. The “number of CXCR4+ cells as determined by flow cytometry” value (hESCs [2]) was “increase dramatically”.
